From patent US20260265349A1 (GRIFFITH UNIVERSITY, published 2026)
Several values for one entry are separate records, joined by “and”; a condition that tells them apart may be missing. Equal values may be shown once. Read-outs that look alike come from different tables or passages of the source.

T1: norovirus GII.17 Kawasaki308 P domain (norovirus GII.17 Kawasaki308)
T1 construct: also called GII.17 P domain
T1 chain: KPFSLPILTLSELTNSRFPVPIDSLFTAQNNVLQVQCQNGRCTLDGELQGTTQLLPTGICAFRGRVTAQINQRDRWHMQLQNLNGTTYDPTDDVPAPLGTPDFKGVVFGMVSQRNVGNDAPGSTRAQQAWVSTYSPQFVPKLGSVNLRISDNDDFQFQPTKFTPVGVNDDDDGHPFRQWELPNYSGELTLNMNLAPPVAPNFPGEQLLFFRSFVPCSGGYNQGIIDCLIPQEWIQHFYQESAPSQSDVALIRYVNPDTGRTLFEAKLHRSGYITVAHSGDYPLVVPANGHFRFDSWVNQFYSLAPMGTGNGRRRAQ

T2: norovirus GII.4 Sydney-2012 virus-like particles (norovirus GII.4 Sydney-2012, UniProt P54635 1-538)
T2 construct: also called GII.4 Sydney-2012 VLPs; GII.4 VLPs
T2 chain: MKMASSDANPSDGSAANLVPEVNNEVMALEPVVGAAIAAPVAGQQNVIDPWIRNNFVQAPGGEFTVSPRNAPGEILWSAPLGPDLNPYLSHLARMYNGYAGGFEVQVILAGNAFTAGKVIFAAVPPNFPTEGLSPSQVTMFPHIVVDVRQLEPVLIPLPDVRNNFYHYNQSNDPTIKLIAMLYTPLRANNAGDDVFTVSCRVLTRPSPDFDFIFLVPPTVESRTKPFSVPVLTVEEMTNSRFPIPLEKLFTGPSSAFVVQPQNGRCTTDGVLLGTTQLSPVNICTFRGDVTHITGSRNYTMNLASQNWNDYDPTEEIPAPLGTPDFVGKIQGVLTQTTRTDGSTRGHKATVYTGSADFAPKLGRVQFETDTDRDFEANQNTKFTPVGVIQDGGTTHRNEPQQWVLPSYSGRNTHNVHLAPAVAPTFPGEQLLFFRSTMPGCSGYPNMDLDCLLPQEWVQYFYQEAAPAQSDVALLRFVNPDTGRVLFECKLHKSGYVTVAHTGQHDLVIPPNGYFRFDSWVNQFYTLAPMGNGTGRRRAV

T3: norovirus GII.10 Vietnam 026 virus-like particles (norovirus GII.10 Vietnam 026)
T3 construct: also called GII.10 VLPs
T3 chain: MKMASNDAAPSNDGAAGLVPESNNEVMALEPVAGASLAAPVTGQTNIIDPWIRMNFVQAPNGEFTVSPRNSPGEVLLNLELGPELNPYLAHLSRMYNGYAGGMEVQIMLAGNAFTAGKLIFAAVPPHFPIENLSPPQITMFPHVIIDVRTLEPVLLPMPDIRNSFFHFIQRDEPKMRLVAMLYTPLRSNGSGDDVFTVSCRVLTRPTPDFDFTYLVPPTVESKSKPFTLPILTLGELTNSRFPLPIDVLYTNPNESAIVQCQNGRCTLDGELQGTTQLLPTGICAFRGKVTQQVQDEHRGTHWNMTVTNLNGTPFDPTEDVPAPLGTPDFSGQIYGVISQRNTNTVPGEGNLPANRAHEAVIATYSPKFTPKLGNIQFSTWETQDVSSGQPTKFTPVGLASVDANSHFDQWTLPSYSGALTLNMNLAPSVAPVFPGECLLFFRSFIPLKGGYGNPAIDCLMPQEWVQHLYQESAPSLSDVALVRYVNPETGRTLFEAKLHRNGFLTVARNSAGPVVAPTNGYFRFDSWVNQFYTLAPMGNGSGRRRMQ

T4: norovirus GII.17 Kawasaki308 virus-like particles (norovirus GII.17 Kawasaki308)
T4 construct: also called GII.17 Kawasaki308 VLPs; GII.17 VLPs
T4 chain: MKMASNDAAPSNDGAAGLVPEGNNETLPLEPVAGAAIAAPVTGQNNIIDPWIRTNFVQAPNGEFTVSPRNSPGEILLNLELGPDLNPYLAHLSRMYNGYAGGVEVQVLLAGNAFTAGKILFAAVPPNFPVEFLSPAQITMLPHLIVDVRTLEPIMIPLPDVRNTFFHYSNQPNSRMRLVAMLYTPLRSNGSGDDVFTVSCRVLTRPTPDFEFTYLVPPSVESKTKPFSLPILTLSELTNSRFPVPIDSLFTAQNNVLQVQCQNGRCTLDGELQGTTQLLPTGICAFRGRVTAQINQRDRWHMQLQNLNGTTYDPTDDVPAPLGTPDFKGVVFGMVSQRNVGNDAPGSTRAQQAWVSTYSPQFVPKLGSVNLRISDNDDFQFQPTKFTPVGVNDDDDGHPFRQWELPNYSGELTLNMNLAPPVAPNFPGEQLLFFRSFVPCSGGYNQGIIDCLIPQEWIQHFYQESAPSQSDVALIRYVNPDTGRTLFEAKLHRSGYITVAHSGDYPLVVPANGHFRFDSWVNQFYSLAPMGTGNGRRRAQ

T5: norovirus GII.4 Sydney-2012 P domain (norovirus GII.4 Sydney-2012)
T5 construct: also called GII.4 P domain
T5 chain: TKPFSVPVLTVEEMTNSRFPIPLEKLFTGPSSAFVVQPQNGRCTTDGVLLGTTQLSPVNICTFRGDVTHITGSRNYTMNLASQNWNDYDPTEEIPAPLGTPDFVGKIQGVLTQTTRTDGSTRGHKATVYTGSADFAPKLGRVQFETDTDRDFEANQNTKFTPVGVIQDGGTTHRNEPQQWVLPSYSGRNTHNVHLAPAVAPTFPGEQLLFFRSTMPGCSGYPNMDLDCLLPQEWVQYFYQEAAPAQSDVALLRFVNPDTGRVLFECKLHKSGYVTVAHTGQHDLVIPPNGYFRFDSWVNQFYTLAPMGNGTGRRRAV

B1: NB-45 single domain antibody (VHH)
VHH: QVQLQESGGGLVQAGGSLRLSCTVSGRTDSESTMGWFRQAAGKGREFVAAMNWRYATTYHTDSVKGRFTISKDSAKNTMYLQMNSLKPEDTAVYYCAHRYIYGSLSDSGSYDNWGQGTQVTVSS
notes: also called GII.17 nanobody; not shown: C-terminal His tag ('His-tagged nanobodies')
B2: NB-7 single domain antibody (VHH)
VHH: QVQLQESGGGLVQAGGSLRLSCAASGRTFSSYRMGWYRQAPGKEREFVAAITGSGDSTNYADSVKGRFTVSGNSARNLVYLQMNSLKPEDTAVYLCVAYRTGGPPQWGQGTQVTVSS
notes: as for B1
B3: NB-76 single domain antibody (VHH, not shown: small tags and cut ends)
VHH: QVQLQESGGGLVQAGGSLRLSCAASGTIFSIDAFGWYRQAPGKQREWVAGITSGSSTIYADFVKGRFTISRDNAKNTVFLQMNSLKPEDTAVYYCNRAKPPTYYSLEPWGKGTQVTVSS
notes: also called GII.4 nanobody
B4: NB-2 single domain antibody (VHH)
VHH: QVQLQESGGGLVQAGGSLRLSCAASGRFFSSYAMGWFRQAPGKEREFVAAISWSGGSTYYADSVKGRFTTSRDNAKNTVYLLMNSLKPEDTAVYYCAAAREGAYYPDSYYRTVRYDYWGQGTQVTVSS
notes: as for B1

Assays:
[1] = biological target: T1, norovirus GII.17 Kawasaki308 P domain; experiment: ITC, nanobody into P domain, 25 C
Protocol: (§1) Isothermal calorimetry (ITC) experiments were done using an ITC-200 (Malvern). Samples were prepared in PBS and filtered prior to the experiments. […] Injections were performed until saturation was achieved. To correct for heats of dilution from titrants control experiments were performed by titrating nanobodies into PBS. The heat associated with the control titration was subtracted from raw binding data prior to fitting. The data was fitted using a single set-binding model (Origin 7.0 software). Nanobody binding sites on the P domains were assumed to be identical. All ITC experiments were performed in triplicate with the average and standard deviation calculated.

[2] = biological target: T2, norovirus GII.4 Sydney-2012 virus-like …; experiment: direct ELISA on coated VLPs, heat map of OD492
[3] = biological target: T3, norovirus GII.10 Vietnam 026 virus-like …; experiment: direct ELISA on coated VLPs, heat map of OD492
[4] = biological target: T4, norovirus GII.17 Kawasaki308 virus-like …; experiment: blocking ELISA: VLPs pre-incubated with nanobody, attachment to PGM (HBGA) coated plate
[5] = biological target: T4, norovirus GII.17 Kawasaki308 virus-like …; experiment: direct ELISA on coated VLPs
[6] = biological target: T2, norovirus GII.4 Sydney-2012 virus-like …; experiment: direct ELISA on coated VLPs
[7] = biological target: T5, norovirus GII.4 Sydney-2012 P domain; experiment: ITC, nanobody into P domain, 25 C
Protocol: as §1

[8] = biological target: T4, norovirus GII.17 Kawasaki308 virus-like …; experiment: direct ELISA on coated VLPs, heat map of OD492
[9] = biological target: T3, norovirus GII.10 Vietnam 026 virus-like …; experiment: direct ELISA on coated VLPs, heat map of OD492
[10] = biological target: T2, norovirus GII.4 Sydney-2012 virus-like …; experiment: blocking ELISA: VLPs pre-incubated with nanobody, attachment to PGM (HBGA) coated plate
[11] = biological target: T2, norovirus GII.4 Sydney-2012 virus-like …; experiment: direct ELISA, VLPs coated at 2 µg/mL, His-tagged nanobody detected with anti-His-HRP, OD490

| Binder | +TΔS [1] | Kd [1] | ΔG [1] | ΔH [1] | binding result [2] | binding result [3] | IC50 [4] | nanobody concentration at the cut-off (OD490 0.15) [5] | nanobody concentration at the cut-off (OD490 0.15) [6] | +TΔS [7] | Kd [7] | ΔG [7] | ΔH [7] | binding result [8] | binding result [9] | IC50 [10] | EC50 (read off the curve) [11] |
| --- | --- | --- | --- | --- | --- | --- | --- | --- | --- | --- | --- | --- | --- | --- | --- | --- | --- |
| B1 | -4.4 kcal/mol | 101 nM | -9.82 kcal/mol | -5.43 kcal/mol | no binding | no binding | 0.46 µg/mL |  |  |  |  |  |  |  |  |  |  |
| B2 | 10.2 kcal/mol | 40.9 nM | -10.1 kcal/mol | -20.3 kcal/mol | no binding | no binding | 0.88 µg/mL | 1.56 µg/mL |  |  |  |  |  |  |  |  |  |
| B3 |  |  |  |  |  |  |  |  | 0.38 µg/mL | 2.22 kcal/mol | 56.7 nM | -9.89 kcal/mol | -12.1 kcal/mol | no binding | no binding | 1.42 µg/mL | ~2 µg/mL |
| B4 | 6.14 kcal/mol | 7.5 nM | -11.1 kcal/mol | -17.2 kcal/mol | no binding | no binding | 0.85 µg/mL and 0.84 µg/mL | 0.78 µg/mL |  |  |  |  |  |  |  |  |  |
